Laboratory results from publication PMC5900715 (Genes & Development, 2018).
Ends that are not written are not given here.

Target: MDM2 NTD polypeptide (residues 10–139) (UniProt Q00987 10-139)
Experiment: fluorescence polarisation

Binder	binding result
fluorescein-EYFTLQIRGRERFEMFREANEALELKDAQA (also: dimeric) [dimeric mutant p53 OD peptide (L344A, residues 326–355)]	binds
fluorescein-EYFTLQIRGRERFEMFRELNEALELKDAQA [wild-type p53 OD peptide (residues 326–355)]	binds
